Results on two molecules are retold here after article PMC3868940 (Nature methods, 2013).

Common to all, as to assay: native MS
Data set [1] deals with sensory rhodopsin II (pSRII) from Natronomonas pharaonis, pSRII(1-241) (Natronomonas pharaonis) (UniProt P42196).
Data set [2] deals with the molecule itself.
Data set [3] concerns the molecule itself. The source holds these as a separate data set.

Where two headings read alike, the source gives them in different places.

Molecule “sensory rhodopsin II (pSRII) from Natronomonas pharaonis, pSRII(1-241) (from UniProt P42196 1-239) (receptor)” had a stoichiometry N in data set [1] of 2.

B1: Diacylglycerol Kinase (DgkA) from E. coli (enzyme, E. coli K12, UniProt P0ABN1 2-122, looked up)
chain: ANNTTGFTRIIKAAGYSWKGLRAAWINEAAFRQEGVAVLLAVVIACWLDVDAITRVLLISSVMLVMIVEILNSAIEAVVDRIGSEYHELSGRAKDMGSAAVLIAIIVAVITWCILLWSHFG
For the molecule B1, the “stoichiometry N” value was 2 in the data set “native MS [2]” and 3 in the data set “native MS [3]”.
